Earlier results in publication PMC5488128 (CPT: Pharmacometrics & Systems Pharmacology, 2017).

Experiments:
[1] = subcutaneously applied, tested up to 30U
[2] = tested on: glucose infusion rate (GIR); conditions: type-1 patients, up to 90U insulin Lispro, GIR recording time of 12 h

Substance	dose proportionality of exposure [1]	ED50 [2] [U]
RHI: subcutaneously (s.c.) administered regular human insulin	dose‐proportional	
insulin lispro: prandial insulin analog, comparator in clamp study NCT02470637		51
